Patent publication US11746336B2, “Producing 3-hydroxycarboxylic acid and ketone using polyketide synthases” (The Regents of the University of California, priority 2014, dated 2023)

Assays:
LipPks1+TE [1] = molecular target: T1, LipPks1+TE (Kitasatospora aureofaciens, UniProt Q30CS2); experiment: Steady-state kinetic analysis of LipPks1+TE, starter substrates (LC-MS quantification of products 1a-f); type: biochemical, Streptomyces aureofaciens Tü117
Protocol: (§1) A Bradford protein assay was used to measure the concentration of LipPks1+TE. […] Each time point was set up in a reaction volume of 75 μL. Samples containing 20 μM, 40 μM, 80 μM, 160 μM, or 320 μM of acyl-CoA were individually incubated with 200 μM methymalonyl-CoA and 500 μM NADPH in the presence of 0.5 μM LipPks1+TE in 100 mM phosphate buffer, pH 7.2, containing 2.5 mM TCEP at 23° C. The reactions were quenched at different time points by adding 75 μL of methanol and subsequently filtered with an Amicon Ultra-0.5 mL Centrifugal Filter, 3K device (Millipore) at 23° C. 10 μL of the resulting solutions were analyzed by liquid chromatography-mass spectrometry (LC-MS). […] We assumed that ionization efficiencies of diastereomers were identical.
(§2) LC separation of the enzymatically generated products conducted at 50° C. with an Inertsil ODS-3 reverse-phase column (250 mm length, 2.1 mm internal diameter, 3 μM particle size; GL Sciences) using a 1100 series high-performance liquid chromatography system (Agilent Technologies). The mobile phase was composed of 0.2% formic acid in water (solvent A) and 0.2% formic acid in methanol (solvent B). Products were separated using the following gradient: 60% to 100% B for 10 min, held at 100% B for 2 min, 100% to 60% B for 1 min, held at 60% B for 17 min. A flow rate of 0.14 mL/min was used throughout.
(§3) The LC system was coupled to an Agilent Technologies LC-MSD SL electrospray ionization mass (ESI MS) spectrometer. Nitrogen gas was used as both the nebulizing and drying gas to facilitate the production of gas-phase ions. The drying and nebulizing gases were set to 10 L/min and 20 lb/in2, respectively, and a drying gas temperature of 300° C. was used throughout. ESI was conducted in the negative-ion mode with a capillary voltage of 4 kV. […] The instrument was tuned for a range of m/z 50 to 3000 via the Agilent ES tuning mix. Data acquisition and processing were performed by an Agilent Chemstation (Agilent Technologies; Santa Clara, Calif.).

LipPks1+TE [2] = molecular target: T1, LipPks1+TE; experiment: Steady-state kinetic analysis of LipPks1+TE, extension substrate; type: biochemical, Streptomyces aureofaciens Tü117; conditions: tested as potential extender substrate (data not shown)
Protocol: Each time point was set up in a reaction volume of 75 μL. Samples containing 10 μM, 20 μM, or 40 μM methylmalonyl-CoA were individually incubated with 500 μM isovaleryl-CoA and 500 μM NADPH in the presence of 0.5 μM LipPks1+TE in 100 mM phosphate buffer, pH 7.2, containing 2.5 mM TCEP at 23° C. The reactions were quenched at different time points by adding 75 μL of methanol and subsequently filtered with an Amicon Ultra-0.5 mL Centrifugal Filter, 3K device (Millipore) at 23° C. 10 μL of the resulting solutions were analyzed by LC-MS. Authentic standard 1e was used to quantify the products in the LC-MS analysis. We assumed that ionization efficiencies of diastereomers were identical.
LC separation of the enzymatically generated products conducted at 50° C. with an Inertsil ODS-3 reverse-phase column (250 mm length, 2.1 mm internal diameter, […] particle size; GL Sciences) using a 1100 series high-performance liquid chromatography system (Agilent Technologies). The mobile phase was composed of 0.2% formic acid in water (solvent A) and 0.2% formic acid in methanol (solvent B). Products were separated using the following gradient: 60% to 100% B for 10 min, held at 100% B for 2 min, 100% to 60% B for 1 min, held at 60% B for 17 min. A flow rate of 0.14 mL/min was used throughout. […]

[3] = tested on: CC(C)(C)C(=O)SCCNC(=O)CCNC(=O)[C@H](O)C(C)(C)COP(=O)(O)OP(=O)(O)OC[C@H]1O[C@@H](n2cnc3c(N)ncnc32)[C@H](O)[C@@H]1OP(=O)(O)O; experiment: Steady-state kinetic analysis of LipPks1+TE, starter substrates (LC-MS quantification of products 1a-f); type: biochemical, Streptomyces aureofaciens Tü117; conditions: other: KM of the starter acyl-CoA, 200 μM methylmalonyl-CoA, 500 μM NADPH, 0.5 μM LipPks1+TE, pH 7.2, 23° C.
Protocol: as §1, §2, §3

[4] = tested on: CCC(=O)SCCNC(=O)CCNC(=O)[C@H](O)C(C)(C)COP(=O)(O)OP(=O)(O)OC[C@H]1O[C@@H](n2cnc3c(N)ncnc32)[C@H](O)[C@@H]1OP(=O)(O)O; experiment: as above; type: biochemical, Streptomyces aureofaciens Tü117; conditions: other: KM of the starter acyl-CoA, 200 μM methylmalonyl-CoA, 500 μM NADPH, 0.5 μM LipPks1+TE, pH 7.2, 23° C.
Protocol: as §1, §2, §3

[5] = tested on: CC(C)CC(=O)SCCNC(=O)CCNC(=O)[C@H](O)C(C)(C)COP(=O)(O)OP(=O)(O)OC[C@H]1O[C@@H](n2cnc3c(N)ncnc32)[C@H](O)[C@@H]1OP(=O)(O)O; experiment: as above; type: biochemical, Streptomyces aureofaciens Tü117; conditions: other: KM of the starter acyl-CoA, 200 μM methylmalonyl-CoA, 500 μM NADPH, 0.5 μM LipPks1+TE, pH 7.2, 23° C.
Protocol: as §1, §2, §3

[6] = tested on: CC(C)C(=O)SCCNC(=O)CCNC(=O)[C@H](O)C(C)(C)COP(=O)(O)OP(=O)(O)OC[C@H]1O[C@@H](n2cnc3c(N)ncnc32)[C@H](O)[C@@H]1OP(=O)(O)O; experiment: as above; type: biochemical, Streptomyces aureofaciens Tü117; conditions: other: KM of the starter acyl-CoA, 200 μM methylmalonyl-CoA, 500 μM NADPH, 0.5 μM LipPks1+TE, pH 7.2, 23° C.
Protocol: as §1, §2, §3

[7] = tested on: CCCC(=O)SCCNC(=O)CCNC(=O)[C@H](O)C(C)(C)COP(=O)(O)OP(=O)(O)OC[C@H]1O[C@@H](n2cnc3c(N)ncnc32)[C@H](O)[C@@H]1OP(=O)(O)O; experiment: purified protein, by the assay type; conditions: other: KM of the starter acyl-CoA, 200 μM methylmalonyl-CoA, 500 μM NADPH, 0.5 μM LipPks1+TE, pH 7.2, 23° C.

**Q.** `CC(C)C(=O)SCCNC(=O)CCNC(=O)[C@H](O)C(C)(C)COP(=O)(O)OP(=O)(O)OC[C@H]1O[C@@H](n2cnc3c(N)ncnc32)[C@H](O)[C@@H]1OP(=O)(O)O` [isobutyryl-CoA] was tested. Which kcat (LipPks1+TE [1]; starter acyl-CoA 20-320 μM, 200 μM methylmalonyl-CoA, 500 μM NADPH, 0.5 μM LipPks1+TE, pH 7.2, 23° C.) did it give?
**A.** 0.000883 s⁻¹

**Q.** For `CC(C)(COP(=O)(O)OP(=O)(O)OC[C@H]1O[C@@H](n2cnc3c(N)ncnc32)[C@H](O)[C@@H]1OP(=O)(O)O)[C@@H](O)C(=O)NCCC(=O)NCCSC(=O)CC(=O)O` [Malonyl-CoA], which “acceptance as extender substrate by the AT domain” value (LipPks1+TE [2]) is on record?
**A.** not accepted

**Q.** What does the source list for LipPks1+TE (Kitasatospora aureofaciens)?
**A.** Km [3]: 8.8 µM; kcat [3]: 3.33e-05 s⁻¹; kcat/Km [3]: 4.1 M⁻¹ s⁻¹; Km [4]: 13.4 µM; kcat [4]: 0.000933 s⁻¹; kcat/Km [4]: 70.3 M⁻¹ s⁻¹; Km [5]: 128.1 µM; kcat [5]: 0.00483 s⁻¹; kcat/Km [5]: 38 M⁻¹ s⁻¹; Km [6]: 2.9 µM; kcat [6]: 0.000883 s⁻¹; kcat/Km [6]: 304.1 M⁻¹ s⁻¹; Km [7]: 26.4 µM; kcat [7]: 0.0006 s⁻¹; kcat/Km [7]: 22.7 M⁻¹ s⁻¹

**Q.** Which “product formation with starter substrate” value (LipPks1+TE [1]; 200 μM methylmalonyl-CoA with NADPH (data not shown)) does the source give for `CC(=O)SCCNC(=O)CCNC(=O)[C@H](O)C(C)(C)COP(=O)(O)OP(=O)(O)OC[C@H]1O[C@@H](n2cnc3c(N)ncnc32)[C@H](O)[C@@H]1OP(=O)(O)O` [acetyl-CoA] here?
**A.** No product was observed
